# Key:
# Assay in all cases: cell-based or functional assay
# [1] = target: HIV-1 92TH021 envelope glycoprotein (Env) on pseudovirus (HIV-1)
# [2] = target: HIV-1 92UG005 envelope glycoprotein (Env) on pseudovirus (HIV-1)
# [3] = target: HIV-1 92UG024 envelope glycoprotein (Env) on pseudovirus (HIV-1)
# [4] = target: HIV-1 93IN905 envelope glycoprotein (Env) on pseudovirus (HIV-1)
# [5] = target: HIV-1 93UG077 envelope glycoprotein (Env) on pseudovirus (HIV-1)
# [6] = target: HIV-1 94UG103 envelope glycoprotein (Env) on pseudovirus (HIV-1)
# [7] = target: HIV-1 APV17 envelope glycoprotein (Env) on pseudovirus (HIV-1)
# [8] = target: HIV-1 APV6 envelope glycoprotein (Env) on pseudovirus (HIV-1)
# [9] = target: HIV-1 CMU02 envelope glycoprotein (Env) on pseudovirus (HIV-1)
# [10] = target: HIV-1 JRCSF envelope glycoprotein (Env) on pseudovirus (HIV-1) (UniProt P20871)
# [11] = target: HIV-1 MGRM-AG-005 envelope glycoprotein (Env) on pseudovirus (HIV-1)
# [12] = target: HIV-1 MGRM-C-027 envelope glycoprotein (Env) on pseudovirus (HIV-1)
# [13] = target: HIV-1 MGRM-D-001 envelope glycoprotein (Env) on pseudovirus (HIV-1)
# [14] = target: HIV-1 NL43 envelope glycoprotein (Env) on pseudovirus (HIV-1)
# [15] = target: aMLV envelope protein on pseudovirus (negative control virus)
# [16] = target: HIV-1 92TH021 envelope protein (Env) on pseudotyped virus (HIV-1 strain 92TH021)
# [17] = target: HIV-1 94UG103 envelope protein (Env) on pseudotyped virus (HIV-1 strain 94UG103)
# [18] = target: HIV-1 Env of pseudovirus MGRM-F1-013 (clade F) (HIV-1)
# [19] = target: HIV-1 NL43 envelope protein (Env) on pseudotyped virus (HIV-1 strain NL43)
# [20] = target: HIV-1 Env of isolate 92UG024 (Clade D) (HIV-1)
# [21] = target: HIV-1 Env of isolate CMU02 (CRF01_AE) (HIV-1)
# [22] = target: HIV-1 Env of isolate IAVI-C22 (Clade C) (HIV-1)
# [23] = target: aMLV envelope (negative control)
# [24] = target: HIV-1 JR-CSF Env D325A (HIV-1 isolate JR-CSF) (UniProt P20871)
# [25] = target: HIV-1 JR-CSF Env I323A (HIV-1 (isolate JR-CSF, clade B)) (UniProt P20871)
# [26] = target: HIV-1 JR-CSF Env N295A (HIV-1 (isolate JR-CSF, clade B)) (UniProt P20871)
# [27] = target: HIV-1 JR-CSF Env N355A (HIV-1 isolate JR-CSF) (UniProt P20871)
# [28] = target: HIV-1 JR-CSF Env P299A (HIV-1 (isolate JR-CSF, clade B)) (UniProt P20871)
# [29] = target: HIV-1 JR-CSF Env T202A (HIV-1 (isolate JR-CSF)) (UniProt P20871)
# [30] = target: HIV-1 JR-CSF Env V292A (HIV-1 (isolate JR-CSF, clade B)) (UniProt P20871)
# [31] = target: HIV-1 Env of isolate APV-6 (Clade B) (HIV-1)
# [32] = target: HIV-1 93UG077 Env (HIV-1)
# [33] = target: HIV-1 APV13 Env (HIV-1)
# [34] = target: HIV-1 APV17 Env (HIV-1)
# [35] = target: HIV-1 Env of isolate MGRM-F1-014 (pseudovirus) (HIV-1)
# [36] = target: HIV-1 JRFL Env (HIV-1)
# [37] = target: HIV-1 MGRM-D-001 Env (HIV-1)
# [38] = target: HIV-1 envelope glycoprotein (Env) of isolate 94UG103 (HIV-1)
# [39] = target: HIV-1 envelope glycoprotein (Env) of isolate JR-FL, on pseudovirus (HIV-1)
# [40] = target: HIV-1 JR-CSF Env K305A (HIV-1 (isolate JR-CSF, clade B)) (UniProt P20871)
substance,measurement,setting,value
PGT-141 (4964_G22; 4993_K13) (antibody),"IC50, pseudovirus neutralization",[1],0.0019 µg/mL
same,"IC50, pseudovirus neutralization",[2],> 10 µg/mL
same,"IC50, pseudovirus neutralization",[3],> 10 µg/mL
same,"IC50, pseudovirus neutralization",[4],0.0016 µg/mL
same,"IC50, pseudovirus neutralization",[5],> 10 µg/mL
same,"IC50, pseudovirus neutralization",[6],> 10 µg/mL
same,"IC50, pseudovirus neutralization",[7],0.616 µg/mL
same,"IC50, pseudovirus neutralization",[8],5.08 µg/mL
same,"IC50, pseudovirus neutralization",[9],> 10 µg/mL
same,"IC50, pseudovirus neutralization",[10],0.0047 µg/mL
same,"IC50, pseudovirus neutralization",[11],0.392 µg/mL
same,"IC50, pseudovirus neutralization",[12],0.822 µg/mL
same,"IC50, pseudovirus neutralization",[13],> 10 µg/mL
same,"IC50, pseudovirus neutralization",[14],0.856 µg/mL
same,"IC50, pseudovirus neutralization",[15],> 10 µg/mL
1495_C14 (PGC14) (antibody),"IC50, Neutralizing Antibody Assay, Virus/Ab Incubation 1 hour",[16],> 50 µg/mL
same,"IC50, Neutralizing Antibody Assay, Virus/Ab Incubation 18 hour",[16],> 50 µg/mL
same,"IC50, Neutralizing Antibody Assay, Virus/Ab Incubation 1 hour",[17],> 50 µg/mL
same,"IC50, Neutralizing Antibody Assay, Virus/Ab Incubation 18 hour",[17],> 50 µg/mL
same,IC50,[18],6 µg/mL
same,"IC50, Neutralizing Antibody Assay, Virus/Ab Incubation 1 hour",[19],0.35 µg/mL
same,"IC50, Neutralizing Antibody Assay, Virus/Ab Incubation 18 hour",[19],0.15 µg/mL
2F5 (antibody),IC90 (neutralization of pseudovirus),[20],34.4 µg/mL
same,IC90 (neutralization of pseudovirus),[21],12.2 µg/mL
same,IC90 (neutralization of pseudovirus),[22],> 50 µg/mL
same,IC50,[18],4.57 µg/mL
same,IC90 (neutralization of pseudovirus),[23],> 50 µg/mL
5136_H01 (PGT-131) (antibody),Fold IC50 increase relative to wild-type,[24],> 170 fold
same,Fold IC50 increase relative to wild-type,[25],38 fold
same,Fold IC50 increase relative to wild-type,[26],2.1 fold
same,Fold IC50 increase relative to wild-type,[27],2.3 fold
same,Fold IC50 increase relative to wild-type,[28],2 fold
same,Fold IC50 increase relative to wild-type,[29],2.7 fold
same,Fold IC50 increase relative to wild-type,[30],1.4 fold
b12 (antibody),IC90 (neutralization of pseudovirus),[20],> 50 µg/mL
same,IC90 (neutralization of pseudovirus),[31],> 50 µg/mL
same,IC90 (neutralization of pseudovirus),[21],34.2 µg/mL
same,IC90 (neutralization of pseudovirus),[22],29.6 µg/mL
same,IC50,[18],> 50 µg/mL
same,IC90 (neutralization of pseudovirus),[23],> 50 µg/mL
5141_B17 (PGT-126) (antibody),"IC50, pseudovirus neutralization",[32],0.0256 µg/mL
same,"IC50, pseudovirus neutralization",[33],0.012 µg/mL
same,"IC50, pseudovirus neutralization",[34],0.501 µg/mL
same,"IC50 (µg/mL), pseudovirus neutralization",[35],> 50 µg/mL
same,Fold IC50 increase relative to wild-type,[27],0.2 fold
same,Fold IC50 increase relative to wild-type,[28],0.2 fold
same,Fold IC50 increase relative to wild-type,[30],5 fold
same,"IC50, pseudovirus neutralization",[36],0.014 µg/mL
same,"IC50, pseudovirus neutralization",[37],0.0639 µg/mL
same,Neutralization IC80,[38],0.0316 µg/mL
same,Neutralization IC90,[38],0.0655 µg/mL
same,Neutralization IC95,[38],0.128 µg/mL
same,neutralization IC50,[38],0.0091 µg/mL
same,"IC50, pseudovirus neutralization",[39],0.014 µg/mL
4877_D15 (PGT-122) (antibody),"IC50, pseudovirus neutralization",[32],0.191 µg/mL
same,"IC50, pseudovirus neutralization",[33],0.992 µg/mL
same,"IC50, pseudovirus neutralization",[34],0.522 µg/mL
same,"IC50 (µg/mL), pseudovirus neutralization",[35],0.195 µg/mL
same,"IC50, pseudovirus neutralization",[36],0.0471 µg/mL
same,"IC50, pseudovirus neutralization",[37],0.867 µg/mL
same,"IC50, pseudovirus neutralization",[39],0.026 µg/mL
PGT-144 (4970_K22) (antibody),"IC50, pseudovirus neutralization",[1],0.0934 µg/mL
same,"IC50, pseudovirus neutralization",[2],> 10 µg/mL
same,"IC50, pseudovirus neutralization",[3],> 10 µg/mL
same,"IC50, pseudovirus neutralization",[4],0.158 µg/mL
same,"IC50, pseudovirus neutralization",[5],> 10 µg/mL
same,"IC50, pseudovirus neutralization",[6],> 10 µg/mL
same,"IC50, pseudovirus neutralization",[7],5.12 µg/mL
same,"IC50, pseudovirus neutralization",[8],> 10 µg/mL
same,"IC50, pseudovirus neutralization",[9],> 10 µg/mL
same,"IC50, pseudovirus neutralization",[10],0.128 µg/mL
same,"IC50, pseudovirus neutralization",[11],> 10 µg/mL
same,"IC50, pseudovirus neutralization",[12],> 10 µg/mL
same,"IC50, pseudovirus neutralization",[13],> 10 µg/mL
same,"IC50, pseudovirus neutralization",[14],> 10 µg/mL
same,"IC50, pseudovirus neutralization",[15],> 10 µg/mL
5114_A19 (PGT-128) (antibody),Fold IC50 increase relative to wild-type,[25],3 fold
same,Fold IC50 increase relative to wild-type,[40],1.8 fold
